Test results published in article PMC4367269, “Probing the Acceptor Active Site Organization of the Human Recombinant β1,4-Galactosyltransferase 7 and Design of Xyloside-based Inhibitors” (The Journal of Biological Chemistry, 2015).
Changes are numbered by the printed parent chain. In names and notes the source's numbering stands.

T1: hβ4GalT7 (GST-β4GalT7) (Homo sapiens, UniProt Q9UBV7)
T1 construct: gene B4GALT7; truncated soluble form lacking the first 60 N-terminal amino acids (transmembrane domain and part of stem), GST fusion (tag kept), pET-41a(+), E. coli BL21(DE3), glutathione-Sepharose purified
T1 sequence (Q9UBV7 61-327): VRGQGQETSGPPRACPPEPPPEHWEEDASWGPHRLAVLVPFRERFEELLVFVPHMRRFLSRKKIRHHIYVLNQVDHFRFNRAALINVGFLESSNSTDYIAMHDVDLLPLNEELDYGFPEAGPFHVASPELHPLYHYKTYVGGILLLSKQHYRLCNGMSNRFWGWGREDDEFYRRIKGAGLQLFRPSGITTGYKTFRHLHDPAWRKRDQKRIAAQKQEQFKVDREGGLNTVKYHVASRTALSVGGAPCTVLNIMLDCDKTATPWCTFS

B1: hβ4GalT7 (GST-β4GalT7) (Homo sapiens; H195R) (protein)
chain: T1 sequence (Q9UBV7 61-327) with H135R
notes: truncated soluble form lacking the first 60 N-terminal amino acids (transmembrane domain and part of stem), GST fusion (tag kept), pET-41a(+), E. coli BL21(DE3), glutathione-Sepharose purified
B2: hβ4GalT7 (GST-β4GalT7) (Homo sapiens; Y196F) (protein)
chain: T1 sequence (Q9UBV7 61-327) with Y136F
notes: as for B1
B3: hβ4GalT7 (GST-β4GalT7) (Homo sapiens; Y199F) (protein)
chain: T1 sequence (Q9UBV7 61-327) with Y139F
notes: as for B1
B4: hβ4GalT7 (GST-β4GalT7) (Homo sapiens; R226A) (protein)
chain: T1 sequence (Q9UBV7 61-327) with R166A
notes: as for B1
B5: hβ4GalT7 (GST-β4GalT7) (Homo sapiens; R226K) (protein)
chain: T1 sequence (Q9UBV7 61-327) with R166K
notes: as for B1
B6: hβ4GalT7 (GST-β4GalT7) (Homo sapiens; R270A) (protein)
chain: T1 sequence (Q9UBV7 61-327) with R210A
notes: as for B1
B7: hβ4GalT7 (GST-β4GalT7) (Homo sapiens; R270K) (protein)
chain: T1 sequence (Q9UBV7 61-327) with R210K
notes: as for B1
B8: hβ4GalT7 (GST-β4GalT7) (Homo sapiens) (protein)
chain: T1 sequence (Q9UBV7 61-327)
notes: as for B1
B9: hβ4GalT7 (GST-β4GalT7) (Homo sapiens; H195A) (protein)
chain: T1 sequence (Q9UBV7 61-327) with H135A
notes: as for B1
B10: hβ4GalT7 (GST-β4GalT7) (Homo sapiens; H195Q) (protein)
chain: T1 sequence (Q9UBV7 61-327) with H135Q
notes: as for B1

Experiments:
hβ4GalT7 (GST-β4GalT7) [1] = target: T1, hβ4GalT7 (GST-β4GalT7); experiment: galactosyltransferase competition assay, HPLC-UV; type: biochemical; conditions: 0.5 mM 4-MUX, 1 mM UDP-Gal, 10 mM MnCl2, 100 mM sodium cacodylate pH 7.0, 37 °C; IC50 and Ki not determined
hβ4GalT7 (GST-β4GalT7) [2] = target: T1, hβ4GalT7 (GST-β4GalT7); experiment: galactosyltransferase competition assay, HPLC-UV; type: biochemical
Description: galactosyltransferase competition assay, HPLC-UV on hβ4GalT7 (GST-β4GalT7)

[3] = substrate: Cc1cc(=O)oc2cc(O[C@@H]3OC[C@@H](O)[C@H](O)[C@H]3O)ccc12; experiment: galactosyltransferase assay, HPLC-UV; type: biochemical, Homo sapiens; conditions: apparent, fixed 1 mM UDP-Gal, 10 mM MnCl2, 100 mM sodium cacodylate pH 7.0, 37 °C
Description: (§1) galactosyltransferase assay, HPLC-UV on hβ4GalT7 (GST-β4GalT7)

[4] = substrate: O=c1ccn([C@@H]2O[C@H](COP(=O)(O)OP(=O)(O)O[C@H]3O[C@H](CO)[C@H](O)[C@H](O)[C@H]3O)[C@@H](O)[C@H]2O)c(=O)[nH]1; experiment: galactosyltransferase assay, HPLC-UV; type: biochemical, Homo sapiens; conditions: apparent, fixed 5 mM 4-MUX, 10 mM MnCl2, 100 mM sodium cacodylate pH 7.0, 37 °C
Description: as §1

Molecule | % decrease of activity at the highest concentration (5 mM) (hβ4GalT7 (GST-β4GalT7) [1]) [%] | IC50 (hβ4GalT7 (GST-β4GalT7) [2]) [µM] | Ki (hβ4GalT7 (GST-β4GalT7) [2]) [µM] | Km [3] [µM] | kcat [3] [s⁻¹] | kcat/Km [3] [M⁻¹ s⁻¹] | Km [4] [µM] | kcat [4] [s⁻¹] | kcat/Km [4] [M⁻¹ s⁻¹]
O[C@H]1[C@H](Oc2ccc3ccccc3c2)OCC[C@@H]1O [4H-Xyl-NP, Naphthyl-4-deoxy-β-D-xylopyranoside] | < 25 | – | – | – | – | – | – | – | –
Cc1cc(=O)oc2cc(O[C@@H]3OCC[C@H](O)[C@H]3O)ccc12 [4H-Xyl-MU, 4-Methylumbelliferyl-4-deoxy-β-D-xylopyranoside] | – | 1280 ± 220 | 530 ± 100 | – | – | – | – | – | –
B1 | – | – | – | 350 ± 30 | 1.49 ± 0.0217 | 4030 | 320 ± 20 | 1.49 ± 0.0217 | 4920
B2 | – | – | – | 1060 ± 60 | 0.5 ± 0.0183 | 467 | 340 ± 60 | 0.5 ± 0.0183 | 1470
B3 | – | – | – | 590 ± 60 | 1.2 ± 0.0967 | 1880 | 320 ± 20 | 1.2 ± 0.0967 | 4050
B4 | – | – | – | 440 ± 50 | 0.893 ± 0.0333 | 1870 | 340 ± 30 | 0.893 ± 0.0333 | 2850
B5 | – | – | – | 460 ± 10 | 1.35 ± 0.0483 | 2920 | 290 ± 20 | 1.35 ± 0.0483 | 4700
B6 | – | – | – | 600 ± 20 | 0.773 ± 0.0033 | 1200 | 270 ± 10 | 0.773 ± 0.0033 | 3070
B7 | – | – | – | 540 ± 70 | 0.812 ± 0.025 | 1420 | 370 ± 20 | 0.812 ± 0.025 | 2320
B8 | – | – | – | 350 ± 20 | 1.51 ± 0.0383 | 4170 | 220 ± 20 | 1.51 ± 0.0383 | 7080
B9 | – | – | – | 640 ± 20 | 1.932 ± 0.162 | 3000 | 400 ± 20 | 1.932 ± 0.162 | 4850
B10 | – | – | – | 550 ± 20 | 1.62 ± 0.04 | 2950 | 330 ± 20 | 1.62 ± 0.04 | 4920
